Data published in patent US12344663B2, “Anti-C3 antibodies and antigen-binding fragments thereof and their uses for treating eye or ocular diseases” (CDR-Life AG, priority 2021, dated 2025).
Where a chain is given by its changes, count along the chain named. Blank lines part the entries; values can stand above or below the molecule they belong to.

Legend:
[1] = biological target: T1, human C3b (Homo sapiens, UniProt P01024); assay: SPR (Biacore T100) binding to human C3b
T1 construct: C3b is derived from native C3 and is the larger of two elements formed by the cleavage of C3
T1 sequence (P01024 23-667 limits assumed): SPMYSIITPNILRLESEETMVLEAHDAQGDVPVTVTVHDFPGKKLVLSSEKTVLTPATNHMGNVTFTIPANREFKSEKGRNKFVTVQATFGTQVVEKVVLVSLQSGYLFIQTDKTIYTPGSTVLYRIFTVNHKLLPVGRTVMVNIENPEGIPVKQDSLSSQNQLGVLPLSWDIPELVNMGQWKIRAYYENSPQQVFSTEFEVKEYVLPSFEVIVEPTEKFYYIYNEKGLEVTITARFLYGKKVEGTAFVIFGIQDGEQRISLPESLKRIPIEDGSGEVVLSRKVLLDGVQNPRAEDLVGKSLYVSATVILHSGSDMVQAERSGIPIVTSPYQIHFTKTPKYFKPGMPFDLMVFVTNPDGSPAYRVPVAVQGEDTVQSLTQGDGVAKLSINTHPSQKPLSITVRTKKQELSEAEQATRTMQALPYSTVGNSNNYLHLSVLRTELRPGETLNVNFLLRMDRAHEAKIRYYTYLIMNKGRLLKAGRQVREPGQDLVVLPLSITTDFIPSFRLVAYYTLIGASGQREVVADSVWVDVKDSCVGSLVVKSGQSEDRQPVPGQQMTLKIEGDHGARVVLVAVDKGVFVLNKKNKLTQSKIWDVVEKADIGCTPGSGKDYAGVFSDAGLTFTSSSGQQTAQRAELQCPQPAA
T1 sequence (P01024 749-1663 limits assumed): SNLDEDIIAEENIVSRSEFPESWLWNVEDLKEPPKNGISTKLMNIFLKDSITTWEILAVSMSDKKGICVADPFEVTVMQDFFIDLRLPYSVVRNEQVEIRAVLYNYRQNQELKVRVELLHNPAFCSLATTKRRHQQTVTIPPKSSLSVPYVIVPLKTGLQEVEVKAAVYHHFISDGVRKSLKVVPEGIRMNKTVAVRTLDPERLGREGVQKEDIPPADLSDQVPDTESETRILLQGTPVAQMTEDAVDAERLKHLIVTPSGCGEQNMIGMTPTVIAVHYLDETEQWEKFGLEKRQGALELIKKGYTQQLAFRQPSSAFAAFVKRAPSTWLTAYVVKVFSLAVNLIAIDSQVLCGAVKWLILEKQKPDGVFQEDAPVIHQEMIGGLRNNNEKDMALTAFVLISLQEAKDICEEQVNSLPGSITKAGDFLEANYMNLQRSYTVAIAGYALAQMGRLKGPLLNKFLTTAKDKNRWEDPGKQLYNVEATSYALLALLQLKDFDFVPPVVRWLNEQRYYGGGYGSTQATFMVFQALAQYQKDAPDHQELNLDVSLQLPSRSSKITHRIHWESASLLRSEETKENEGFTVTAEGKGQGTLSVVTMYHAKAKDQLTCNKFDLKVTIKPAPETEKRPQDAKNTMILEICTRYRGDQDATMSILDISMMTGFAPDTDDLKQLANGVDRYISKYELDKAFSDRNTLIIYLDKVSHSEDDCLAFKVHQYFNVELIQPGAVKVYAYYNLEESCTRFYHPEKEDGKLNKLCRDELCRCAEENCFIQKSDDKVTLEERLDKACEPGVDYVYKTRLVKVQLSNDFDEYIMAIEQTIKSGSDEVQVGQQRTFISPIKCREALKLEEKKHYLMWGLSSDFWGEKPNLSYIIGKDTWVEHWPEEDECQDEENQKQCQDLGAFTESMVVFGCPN
Description: (§1) The kinetic parameters of the candidates are determined using a surface plasmon resonance (SPR) and Biacore T100 device. C3 and different variants thereof (Table 19) are immobilized as a ligand on a HC30M SPR sensor chip (XanTec bionanalytics, Germany) using EDC/[…] linking chemistry. Five increasing concentrations of each molecule (analyte) are consecutively injected using the single cycle kinetics (SCK) mode to determine the kinetic parameters. Regeneration between the candidates is done with 10 mM glycine*HCl, 2 M NaCl, pH 3.5. The data is fitted to a 1:1 Langmuir binding model and the kinetic parameters of on-rate (ka), off-rate (kd), and affinity […] were determined.

[2] = biological target: human C3 (Homo sapiens, UniProt P01024); assay: SPR (Biacore T100) binding to human C3; conditions: for Binding affinity to C3 and C3b compared to parental molecule Clone IV: in words
Sequence of human C3 (P01024 23-1663): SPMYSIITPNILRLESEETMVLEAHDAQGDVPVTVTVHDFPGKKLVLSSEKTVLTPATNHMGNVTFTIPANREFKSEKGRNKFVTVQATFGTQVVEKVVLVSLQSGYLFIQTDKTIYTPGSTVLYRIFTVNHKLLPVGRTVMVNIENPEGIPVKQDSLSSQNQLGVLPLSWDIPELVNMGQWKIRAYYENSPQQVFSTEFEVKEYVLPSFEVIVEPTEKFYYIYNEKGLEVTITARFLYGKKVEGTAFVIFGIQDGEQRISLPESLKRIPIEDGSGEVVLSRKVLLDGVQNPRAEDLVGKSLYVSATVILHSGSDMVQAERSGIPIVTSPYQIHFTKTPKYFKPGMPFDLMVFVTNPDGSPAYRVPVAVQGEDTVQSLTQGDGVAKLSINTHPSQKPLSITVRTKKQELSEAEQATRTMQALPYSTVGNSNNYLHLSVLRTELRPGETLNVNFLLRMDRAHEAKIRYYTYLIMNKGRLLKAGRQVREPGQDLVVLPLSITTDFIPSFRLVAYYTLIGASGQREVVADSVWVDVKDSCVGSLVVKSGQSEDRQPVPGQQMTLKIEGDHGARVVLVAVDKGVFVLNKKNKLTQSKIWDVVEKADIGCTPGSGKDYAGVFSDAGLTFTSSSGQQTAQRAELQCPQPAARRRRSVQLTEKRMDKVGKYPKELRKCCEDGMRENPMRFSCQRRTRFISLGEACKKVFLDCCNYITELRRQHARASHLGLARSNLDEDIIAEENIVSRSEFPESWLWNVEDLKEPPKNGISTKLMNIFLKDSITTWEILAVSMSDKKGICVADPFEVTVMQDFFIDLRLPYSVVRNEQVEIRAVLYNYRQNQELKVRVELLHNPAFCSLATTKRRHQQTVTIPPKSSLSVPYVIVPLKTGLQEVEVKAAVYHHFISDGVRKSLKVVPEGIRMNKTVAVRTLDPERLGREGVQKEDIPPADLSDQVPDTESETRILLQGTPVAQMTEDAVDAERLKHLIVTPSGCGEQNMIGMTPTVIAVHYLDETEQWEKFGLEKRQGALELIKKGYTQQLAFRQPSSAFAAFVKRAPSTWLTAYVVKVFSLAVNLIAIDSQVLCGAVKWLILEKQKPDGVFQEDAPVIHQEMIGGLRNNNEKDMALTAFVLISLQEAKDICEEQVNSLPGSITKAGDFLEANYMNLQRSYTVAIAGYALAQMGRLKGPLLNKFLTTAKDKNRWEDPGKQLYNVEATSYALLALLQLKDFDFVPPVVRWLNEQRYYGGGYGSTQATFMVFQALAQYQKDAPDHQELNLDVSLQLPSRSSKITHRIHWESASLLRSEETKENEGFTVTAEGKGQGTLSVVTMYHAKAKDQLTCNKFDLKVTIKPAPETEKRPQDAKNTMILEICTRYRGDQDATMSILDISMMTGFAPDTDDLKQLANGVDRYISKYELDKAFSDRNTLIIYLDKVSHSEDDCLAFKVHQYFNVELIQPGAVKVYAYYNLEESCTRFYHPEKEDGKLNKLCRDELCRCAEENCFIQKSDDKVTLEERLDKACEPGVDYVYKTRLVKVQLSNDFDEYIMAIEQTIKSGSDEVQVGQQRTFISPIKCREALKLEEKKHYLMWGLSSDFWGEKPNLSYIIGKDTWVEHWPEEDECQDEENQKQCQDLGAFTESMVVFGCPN
Description: as §1

[3] = tested on: complement pathways; assay: Complement inhibition assays, comparison with parental Clone IV; assay type: biochemical, human; conditions: in words
Text: To identify antibodies that block all 3 complement pathways, antibodies are screened using an enzyme immunoassay for the qualitative determination of functional classical, lectin and alternative complement pathways in human serum using the WEISLAB® Complement system Screen (Svar Life Science AB, Malmö, Sweden).

[4] = Concentration-dependent monomeric stability study at 37° C.; assay type: physicochemical; conditions: for Monomeric purity/content loss after two weeks incubation at 37° C.: >100 mg/mL protein concentration; for Monomeric content after 2 weeks at 37° C. / Monomeric content at start: Clone XI 152 mg/mL, Clone X 100 mg/mL
Description: The stability of Clone VI's heavy chain framework was explored by introducing framework substitutions, thereby creating inter alia Clone X (SEQ ID NO: 38). Clone X and its disulfide bond stabilized variant Clone XI (SEQ ID NO: 39) were compared in a stability study at 37° C. and >100 mg/mL protein concentration.

[5] = Thermal stability by differential scanning fluorimetry (DSF); assay type: physicochemical; conditions: DSF, Example 4
Text: Differential scanning fluorimetry (DSF) measures protein unfolding by monitory changes in fluorescence as a function of temperature.
The temperature of protein unfolding (Tm) is tied to the stability of antibodies, specifically to aggregation during storage and long-term stability of the therapeutic product. The thermal transitions of monoclonal antibody CH2 and CH3 domains are typically invariant for different antibodies within an isotype, with the CH2 domain unfolding prior to the CH3 domain.

[6] = biological target: T2, recombinant C3 (wild-type human C3) (Homo sapiens, UniProt P01024); assay: SPR (Biacore T100) binding to recombinant C3
T2 construct: 6×His (N); made in house; host or cells: CHO (ExpiFectamine CHO Expression Kit)
T2 sequence (P01024 23-1663): as above
Description: as §1
(§2) Proteins are expressed with N-terminal 6×His tag and purified using a HisTrap Excel HP column (GE Healthcare), followed by a size-exclusion chromatography step (SUPERDEX®20010/300GL; GE Healthcare).

[7] = Viscosity at high concentrations, cone-plate-rheometer; assay type: physicochemical; conditions: 20° C., shear-rate 1000 s^−1
Description: Viscosity measurements are performed with the samples prepared for the storage stability study. In addition to the fully formulated samples (10 mM His pH 5.5, 275 mM sucrose, 0.02% w/v Polysorbate20), viscosity of each candidate is also measured in a minimal formulation (10 mM histidine pH 5.5). This is performed to evaluate the drug substance processability (e.g., filtration, pumping, diafiltration, etc.) of the candidates up to 125% of the final drug product concentration of 150 mg/ml.
Viscosity is measured at 20° C. at a shear-rate of 1000 s^−1 using a cone-plate-rheometer. Briefly, a stepwise increase of the shear rate up to 1,000 s^−1 is done collecting 100 data points, followed by a further increase of the shear rate up to 2000 s^−1, collecting another 10 data points. Finally, a stepwise decrease of the shear rate down to starting rate is done. Good drug product handling properties for filling and syringeability have been observed for all candidates

[8] = biological target: cyno C3; assay: SPR (Biacore T100) binding to cyno C3; parameters: species or system cynomolgus (Macaca fascicularis)
Description: as §1

[9] = biological target: T3, human C3 P314L (Homo sapiens, UniProt P01024, P314L); assay: SPR (Biacore T100) binding to C3 SNP1 P314L
T3 construct: 6×His (N); made in house; host or cells: CHO (ExpiFectamine CHO Expression Kit)
T3 sequence (P01024 23-1663 P314L): as the sequence (P01024 23-1663) above, with P292L counted along it
Description: as §1
Single nucleotide polymorphism (SNP) in C3 has been observed across the population and certain SNPs were identified in genome-wide association studies (GWAS) to correlate with an increased risk to develop AMD. […] Very rare variants, which occur in less that 2.5% of the population include K155Q, R735W, S1619W, K65Q and R161W.
as §2

[10] = Storage stability at 150 mg/ml, oligomerization by SE-HPLC; assay type: physicochemical; conditions: decrease in monomeric content versus start
Description: (§3) Clone I, clone II and clone III are tested for storage stability. Samples are concentrated to 150 mg/ml (Vivaspin20 centrifugal device, 5 kDa MWCO at 3800×g) and stored at 25° C. and 40° C. for up to 4 weeks. Samples are analyzed for oligomerization (SE-HPLC) and chemical degradation (IEX-HPLC). The starting monomeric purity as determined by SE-HPLC was 99.96% for each clone. The starting charge purity, as determined by IEX-HPLC was 98.07%, 97.16% and 96.76%, respectively for clone I, II and III.

[11] = biological target: T4, human C3 R102G (Homo sapiens, UniProt P01024, R102G); assay: SPR (Biacore T100) binding to C3 SNP2 R102G
T4 construct: 6×His (N); made in house; host or cells: CHO (ExpiFectamine CHO Expression Kit)
T4 sequence (P01024 23-1663 R102G): as the sequence (P01024 23-1663) above, with R80G counted along it
Description: as §1
Single nucleotide polymorphism (SNP) in C3 has been observed across the population and certain SNPs were identified in genome-wide association studies (GWAS) to correlate with an increased risk to develop AMD. Common SNP variants include P314L, which occurs in approximately 23.3% of population, and R102G, which has been reported to occur in approximately 26-29% of population. Very rare variants, which occur in less that 2.5% of the population include K155Q, R735W, S1619W, K65Q and R161W.
The inventors therefore measured the binding affinity of the scFv of the invention to the most commonly occurring C3 forms, i.e., R102G and P314L. Wild-type human C3, human C3 P314L and human C3 R102G are expressed in the CHO cell line using the ExpiFectamine CHO Expression Kit (Thermo Fisher Scientific). Proteins are expressed with N-terminal 6×His tag and purified using a HisTrap Excel HP column (GE Healthcare), followed by a size-exclusion chromatography step (SUPERDEX®20010/300GL; GE Healthcare).

[12] = Storage stability at 150 mg/ml, chemical degradation by IEX-HPLC; assay type: physicochemical
Description: as §3

B2: Clone V: reformatted and humanized scFv variant of Clone IV, SEQ ID NO: 33 (protein)
scFv: MQLVLTQSPSASASLGASVKLTCTLSSAHKTYTIDWYQQQPEKGPRYLMQLKSDGSYTKGTGVPDRFSGSSSGAERYLTISSLQSEDEADYYCGTDYGGGYVFGGGTKLTVLGGGGGSGGGGSGGGGSGGGGSQVQVVESGGGSVQPGRSLRLSCAASGFSLYNYAMNWVRQAPGKGLEWIGIINTDGNTNYASWAKGRFTISTDNSKNTLYLQMNSLRAEDTASYYCPRAVGYHHHALDPWGQGTSVTVSS
modifications: ScFv
Binding affinity to C3 and C3b compared to parental molecule Clone IV ([2]; C3 and C3b): lower binding affinity | Complement inhibition activity compared to parental molecule Clone IV [3]: retains its ability to inhibit the classical and alternative complement pathways

B3: Clone XI: disulfide bond stabilized variant of Clone X, SEQ ID NO: 39 (protein)
scFv: B2 scFv with G44C, A156T, A157V, L211V, P229A, Q244C
modifications: ScFv
Monomeric purity/content loss after two weeks incubation at 37° C. [4]: 3.3% | Monomeric content after 2 weeks at 37° C. [4]: 96.5% | Monomeric content at start [4]: 99.8%

B4: Clone X: Clone VI with heavy chain framework substitutions, SEQ ID NO: 38 (protein)
scFv: B2 scFv with A156T, A157V, L211V, P229A
modifications: ScFv
Monomeric purity/content loss after two weeks incubation at 37° C. [4]: 60.4% | Monomeric content after 2 weeks at 37° C. [4]: 39.3% | Monomeric content at start [4]: 99.7%

B5: Clone XII: scFv combining affinity maturation substitutions and disulfide bond stabilization, SEQ ID NO: 40 (protein)
scFv: MQLVLTQSPSASASLGASVKLTCTLSSAHKTYTIDWYQQQPEKCPRYLMQLKSEGSYTKGTGVPDRFSGSSSGAERYLTISSLQSEDEADYYCGTDYGGGYVFGGGTKLTVLGGGGGSGGGGSGGGGSGGGGSQVQVVESGGGSVQPGRSLRLSCAVSGFSLYNYAMNWVRQAPGKGLEWIGIINVGGGTNYASWAKGRFTISTDNSKNTVYLQMNSLRAEDTASYYCARAVGYHHARLDPWGCGTSVTVSS
modifications: ScFv
Melting temperature [5]: 70.4 °C

B6: Clone III: humanized anti-C3 scFv, VH SEQ ID NO: 24, VL SEQ ID NO: 25; scFv SEQ ID NO: 30 or 31 (protein)
scFv: MQLVLTQSPSASASLGASVKLTCTLSSAHKTYTIDWYQQQPEKCPRYLMQLKSEGSYTKGSGIPDRFSGSSSGAERYLTISSLQSEDEADYYCGTEGVGGYVFGGGTKLTVLGGGGGSGGGGSGGGGSGGGGSQVQLVESGGGSVQPGRSLRLSCAASGFTFSNYAMNWVRQAPGKGLEWVAIINVGGGTNYADSVKGRFTISRDNSKNTLYLQMNSLRAEDTASYYCARAVGYHHARLDPWGCGTSVTVSS
kd C3 ([2]; off-rate): 3.6e-05 s⁻¹ | ka C3 ([2]; on-rate): 240000 M⁻¹ s⁻¹ | kd recombinant C3 ([6]; off-rate): 3.5e-05 s⁻¹ | ka recombinant C3 ([6]; on-rate): 270000 M⁻¹ s⁻¹ | Viscosity [mPa * s] Fully formulated at 150 g/L ([7]; 10 mM His pH 5.5, 275 mM sucrose, 0.02% w/v Polysorbate20): 3.3 mPa * s | Viscosity [mPa * s] Minimal buffer at 185 g/L ([7]; 10 mM His pH 5.5): 3.2 mPa * s | kd cyno C3 ([8]; off-rate): 4.3e-05 s⁻¹ | ka cyno C3 ([8]; on-rate): 200000 M⁻¹ s⁻¹ | kd C3 SNP1 P314L ([9]; off-rate): 3.2e-05 s⁻¹ | ka C3 SNP1 P314L ([9]; on-rate): 250000 M⁻¹ s⁻¹ | Storage stability, SEC 4 weeks at 25° C. [D %] [10]: 0.10 D % | Storage stability, SEC 4 weeks at 40° C. [D %] [10]: 0.84 D % | kd C3 SNP2 R102G ([11]; off-rate): 3.2e-05 s⁻¹ | ka C3 SNP2 R102G ([11]; on-rate): 280000 M⁻¹ s⁻¹ | Starting charge purity (IEX-HPLC) ([12]; before storage): 96.76% | Storage stability, IEX 4 weeks at 25° C. [D %] ([12]; decrease versus start): 0.3 D % | Storage stability, IEX 4 weeks at 40° C. [D %] ([12]; decrease versus start): 3.6 D % | kd C3b ([1]; off-rate): 3.1e-05 s⁻¹ | ka C3b ([1]; on-rate): 250000 M⁻¹ s⁻¹

B8: Clone IX: affinity maturation hit scFv, SEQ ID NO: 37 (protein)
scFv: B5 scFv with C44G, E88S, D90V, Y97G, G98V, G105C, G177C, A237H, R238A, C244Q
modifications: ScFv
Binding affinity to C3 and C3b compared to parental molecule Clone IV ([2]; C3 and C3b): comparable binding affinity | Complement inhibition activity compared to parental molecule Clone IV [3]: comparable

Now from value to molecule, other results behind:

Kd ([1]; Table 19, SPR, read-out: Affinity human C3b): > 34 nM
B1: Compound A3 Fab: NGM621 surrogate in a Fab format (antibody, V domains shown)
VH: QVQLVQSGAEVKKPGASVKVSCKASGYTFTDFYMDWVRQAPGQRLEWMGYIYPHNGGTTYNQQFTGRVTITVDKSASTAYMELSSLRSEDTAVYYCARRGGFDFDYWGQGTLVTVSS
VL: DIQMTQSPSSLSASVGDRVTITCKASENVDTYVSWYQQKPGKAPKLLIYGASNRYTGVPSRFSGSGSGTDFTFTISSLQPEDIATYHCGQSHSYPLTFGQGTKLEIKR

Binding affinity to C3 and C3b compared to parental molecule Clone IV ([2]; C3 and C3b): comparable binding affinity
B7: Clone VII: affinity maturation hit scFv, SEQ ID NO: 35 (protein)
scFv: MQLVLTQSPSASASLGASVKLTCTLSSAHKTYTIDWYQQQPEKGPRYLMQLKSEGSYTKGTGVPDRFSGSSSGAERYLTISSLQSEDSAVYYCGTEGVGGYVFGCGTKLTVLGGGGGSGGGGSGGGGSGGGGSQVQVVESGGGSVQPGRSLRLSCAVSGFSLYNYAMNWVRQAPGKCLEWIGIINVGGGTNYASWAKGRFTISTDNSKNTVYLQMNSLRAEDTASYYCARAVGYHHHALDPWGQGTSVTVSS
modifications: ScFv
Complement inhibition activity compared to parental molecule Clone IV [3]: comparable

Increase in the binding affinity to C3 and C3b compared to Clone IV ([2]; C3 and C3b): approximately 10 fold
B9: Clone VIII: affinity maturation hit scFv, SEQ ID NO: 36 (protein)
scFv: B7 scFv with H237S, A238R
modifications: ScFv
Complement inhibition activity compared to parental molecule Clone IV [3]: superior performance
